Values belong to the binder of their own block, whether it stands above or below them.
Assays:
[1] = molecular target: IgD-Fc (Fc region of human IgD, SpyTagged) (human); experiment: SEC; complexes of Nb and IgD-Fc with IgD-Fc at 2 µM, incubated overnight at 4 °C; Superdex 200 Increase 10/300 GL in HBS-az at 10 °C
[2] = molecular target: His-tagged IgD (SpyTagged HAPPID1: human anti-Phl p 7 IgD 102.1F10 with SpyTag003 and His6-tag on the heavy chain) (human) (UniProt P01880); experiment: SPR; His-tagged IgD (100 nM) captured on an anti-His chip (CM5); two-fold dilution series of TEV-cleaved Nbs, 200 nM to 1.6 nM, flowed over; Biacore T200, 25 °C, 10 mM HEPES pH 7.4, 150 mM NaCl, 0.05% P20; koff from mono- or biphasic decay, kon from kobs against concentration, KD = koff/kon
[3] = molecular target: IgD on Namalwa B cells (membrane-bound IgD) (human (endogenous in Namalwa)) (UniProt P01880); experiment: flow cytometry on cells; Namalwa cells incubated with 1 µM AF488-labeled Nb:Catcher fusion in PBS pH 7.3, 1% BSA, 0.1% NaN3, 1 h at 4 °C (1 µM, 500 nM and 250 nM for titration); median fluorescence intensity
Chain of IgD on Namalwa B cells (membrane-bound IgD) (human (endogenous in Namalwa)) (P01880 whole entry, looked up, the tested form may be a part): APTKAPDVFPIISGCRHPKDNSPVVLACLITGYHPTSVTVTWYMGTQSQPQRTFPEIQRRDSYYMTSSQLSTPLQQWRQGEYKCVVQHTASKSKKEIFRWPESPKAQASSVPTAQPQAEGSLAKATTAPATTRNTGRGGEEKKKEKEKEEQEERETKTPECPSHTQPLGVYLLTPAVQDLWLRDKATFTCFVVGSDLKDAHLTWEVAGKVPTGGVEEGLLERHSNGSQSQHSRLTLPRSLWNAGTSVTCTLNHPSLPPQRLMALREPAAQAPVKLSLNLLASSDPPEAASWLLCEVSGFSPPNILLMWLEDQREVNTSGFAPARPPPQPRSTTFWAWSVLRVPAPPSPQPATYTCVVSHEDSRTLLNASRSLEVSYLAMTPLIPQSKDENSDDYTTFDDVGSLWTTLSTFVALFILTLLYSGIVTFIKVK

[4] = molecular target: T1, Phl p 7 (antigen of HAPPID1) on an SA chip (Phleum pratense (common timothy), UniProt O82040); experiment: SPR; IgD (HAPPID1) captured by its antigen Phl p 7 on an SA chip; 25 nM aδNb408 or aδNb408-Nb pairs flowed over; 25 °C, running buffer with 5 mM CaCl2; details: both partners purified
T1 construct: Held on a streptavidin chip; also called SA-Phl p 7 chip
T1 sequence (O82040 whole entry): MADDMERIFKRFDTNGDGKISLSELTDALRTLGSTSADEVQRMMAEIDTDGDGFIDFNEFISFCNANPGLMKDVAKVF

MFI [3]: 1450
B3: AF488-labeled monovalent aδNb367 (SpyTagged aδNb367 reacted with AF488-labeled SpyCatcher003) (VHH)
VHH: QVQLQESGGGLVQPGGSLRLACAASGFSLSTYTMSWVRQSPGKGLEWVSTITSDGGWTSYRDSVKGRFTISRDNAKNTLYLQMNSLNPEDTAVYYCRRGVGVVRGERPGGQGTQVTVSS

KD1 [2]: 0.89 nM | KD2 [2]: 5.2 nM | koff1 [2]: 0.00074 s⁻¹ | koff2 [2]: 0.0043 s⁻¹ | kon [2]: 820000 M⁻¹ s⁻¹
B8: anti-IgD Nb 408 (aδNb408), TEV-cleaved (VHH)
VHH: QVQLQESGGGLVQAGDSLRLSCVASGRSISNDAMAWFRQAPGKEREFVAAITWRYSNTHYSDSVKDRFTISRDNAKNTVYLQMNSLKPEDTADYYCAADRRGTGASSYSRDYDYWGQGTQVTVSS

MFI [3]: 1340
B9: AF488-labeled monovalent aδNb408 (SpyTagged aδNb408 reacted with AF488-labeled SpyCatcher003) (VHH)
VHH: QVQLQESGGGLVQAGDSLRLSCVASGRSISNDAMAWFRQAPGKEREFVAAITWRYSNTHYSDSVKDRFTISRDNAKNTVYLQMNSLKPEDTADYYCAADRRGTGASSYSRDYDYWGQGTQVTVSS

stoichiometry N [1]: 2 Nb:IgD
B10: His-tagged anti-IgD Nb 408 (aδNb408) (VHH)
VHH: QVQLQESGGGLVQAGDSLRLSCVASGRSISNDAMAWFRQAPGKEREFVAAITWRYSNTHYSDSVKDRFTISRDNAKNTVYLQMNSLKPEDTADYYCAADRRGTGASSYSRDYDYWGQGTQVTVSS

Continued, binder first:

B1: His-tagged anti-IgD Nb 367 (aδNb367) (VHH)
VHH: QVQLQESGGGLVQPGGSLRLACAASGFSLSTYTMSWVRQSPGKGLEWVSTITSDGGWTSYRDSVKGRFTISRDNAKNTLYLQMNSLNPEDTAVYYCRRGVGVVRGERPGGQGTQVTVSS
stoichiometry N [1]: 2 Nb:IgD

B2: anti-IgD Nb 367 (aδNb367), TEV-cleaved (VHH)
VHH: QVQLQESGGGLVQPGGSLRLACAASGFSLSTYTMSWVRQSPGKGLEWVSTITSDGGWTSYRDSVKGRFTISRDNAKNTLYLQMNSLNPEDTAVYYCRRGVGVVRGERPGGQGTQVTVSS
Kd [2]: 2.4 nM | koff [2]: 0.00047 s⁻¹ | kon [2]: 200000 M⁻¹ s⁻¹

B4: anti-IgD Nb 107 (aδNb107), TEV-cleaved (VHH)
VHH: QVQLQESGGGLVQAGASLRLSCTASERTFSPYAMGWFRQAPGREREVIASIFWTGGNTGYADSVKGRFTISRDTAKNTVYLQMSNLKPEDTAVYYCGARTSASAPIYGLWGQGTQVTVSS
KD1 [2]: 3.2 nM | KD2 [2]: 22 nM | koff1 [2]: 0.00066 s⁻¹ | koff2 [2]: 0.0046 s⁻¹ | kon [2]: 210000 M⁻¹ s⁻¹

B5: AF488-labeled monovalent aδNb107 (SpyTagged aδNb107 reacted with AF488-labeled SpyCatcher003) (VHH)
VHH: QVQLQESGGGLVQAGASLRLSCTASERTFSPYAMGWFRQAPGREREVIASIFWTGGNTGYADSVKGRFTISRDTAKNTVYLQMSNLKPEDTAVYYCGARTSASAPIYGLWGQGTQVTVSS
MFI [3]: 662

B6: His-tagged anti-IgD Nb 107 (aδNb107) (VHH)
VHH: QVQLQESGGGLVQAGASLRLSCTASERTFSPYAMGWFRQAPGREREVIASIFWTGGNTGYADSVKGRFTISRDTAKNTVYLQMSNLKPEDTAVYYCGARTSASAPIYGLWGQGTQVTVSS
stoichiometry N [1]: 2 Nb:IgD

B7: human anti-Phl p 7 IgD 102.1F10 (HAPPID1) (antibody, V domains shown)
VH: QVQLVQSGAEVRNPGASVKVSCKASGYTFTSYAIHWVRQAPGHRLEWVGRINTDNGNTKYSQKFHGRVALSRDTSASTTYMDLSSLNSEDTAVYYCARAFYYSSGVMFDSWGQGALVTVSS
VL: QSALTQPPSVSGAPGQRVSISCTGGSSNFGAGYDVHWYQQLPATAPKLLIYGNNNRPSGVPDRFSGSKSGTSASLAITGLQAEDEGDYFCQSFDTSLSGWIFGGGTKLTVL
notes: heavy-chain variable domain of the human anti-Phl p 7 antibody 102.1F10; pVITRO1-HAPPID1 at Addgene; human immunoglobulin heavy constant delta, secreted form; UniProt P01880-1 is printed for the IgD-Fc used in this study; light chain of 102.1F10; also called full-length IgD; source: stably transfected FreeStyle 293-F cells; copies: 2 + 2
binding result [4]: binds

B11: anti-IgD Nb 571 (aδNb571), TEV-cleaved (VHH)
VHH: QVQLQESGGGLVQPGGSLRLSCAASGTPFSASVMAWYRQAPGKERVWVATITSDSMTYYADSVNGRFTISRDNAKSTVYLQMNSLKPEDTAAYICRHAASASWGQGTQVTVSS
Kd [2]: 0.66 nM | koff [2]: 0.0012 s⁻¹ | kon [2]: 1.8e+06 M⁻¹ s⁻¹

B12: His-tagged anti-IgD Nb 571 (aδNb571) (VHH)
VHH: QVQLQESGGGLVQPGGSLRLSCAASGTPFSASVMAWYRQAPGKERVWVATITSDSMTYYADSVNGRFTISRDNAKSTVYLQMNSLKPEDTAAYICRHAASASWGQGTQVTVSS
stoichiometry N [1]: 1 Nb:IgD

B13: AF488-labeled monovalent aδNb571 (SpyTagged aδNb571 reacted with AF488-labeled SpyCatcher003) (VHH)
VHH: QVQLQESGGGLVQPGGSLRLSCAASGTPFSASVMAWYRQAPGKERVWVATITSDSMTYYADSVNGRFTISRDNAKSTVYLQMNSLKPEDTAAYICRHAASASWGQGTQVTVSS
MFI [3]: 921

— PMC12238353 (Scientific Reports, 2025)
